Experimental data: PMC9482650, “Quantitative fragmentomics allow affinity mapping of interactomes” (Nature Communications, 2022)

Molecular target: T1, CARD11, Q9BXL7
T1 sequence (Q9BXL7 662-765, limits assumed, looked up): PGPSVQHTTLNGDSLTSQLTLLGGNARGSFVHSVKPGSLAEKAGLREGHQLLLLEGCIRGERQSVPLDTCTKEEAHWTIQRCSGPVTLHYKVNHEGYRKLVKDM
Experiment: holdup assay
Design: key: below the threshold = too weak to quantify, mostly under pKd 3.1 to 4
Details: plain residues with an end cap or a label only (N-terminal biotin on a linker: ado-ado)

Binder | pKd
ADEMICITTL [CACNA1D, Q01668] | below the threshold

Molecular target: CASK, O14936
Experiment: holdup assay
Design: key: below the threshold = too weak to quantify, mostly under pKd 3.1 to 4
Details: plain residues with an end cap or a label only (N-terminal biotin on a linker: ado-ado)

Sequence of CASK, O14936 (O14936 487-570): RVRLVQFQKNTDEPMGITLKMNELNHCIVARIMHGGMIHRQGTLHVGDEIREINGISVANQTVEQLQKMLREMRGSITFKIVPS

Binder | pKd
ADEMICITTL [CACNA1D, Q01668] | below the threshold

Molecular target: DLG2_2, Q15700
Experiment: holdup assay
Design: key: below the threshold = too weak to quantify, mostly under pKd 3.1 to 4
Details: plain residues with an end cap or a label only (N-terminal biotin on a linker: ado-ado)

Sequence of DLG2_2, Q15700 (Q15700 189-283): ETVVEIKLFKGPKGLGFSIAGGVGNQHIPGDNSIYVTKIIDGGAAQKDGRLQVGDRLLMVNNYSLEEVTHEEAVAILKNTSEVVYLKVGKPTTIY

Binder | pKd
ADEMICITTL [CACNA1D, Q01668] | 3.81

Molecular target: FRMPD2_1, Q68DX3
Experiment: holdup assay
Design: key: below the threshold = too weak to quantify, mostly under pKd 3.1 to 4
Details: plain residues with an end cap or a label only (N-terminal biotin on a linker: ado-ado)

Sequence of FRMPD2_1, Q68DX3 (Q68DX3 770-861): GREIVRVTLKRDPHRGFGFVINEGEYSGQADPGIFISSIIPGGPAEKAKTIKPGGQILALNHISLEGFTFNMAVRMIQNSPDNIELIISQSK

Binder | pKd
ADEMICITTL [CACNA1D, Q01668] | below the threshold

Molecular target: GOPC, Q9HD26
Experiment: holdup assay
Design: key: below the threshold = too weak to quantify, mostly under pKd 3.1 to 4
Details: plain residues with an end cap or a label only (N-terminal biotin on a linker: ado-ado)

Binder | pKd
ADEMICITTL [CACNA1D, Q01668] | 4.88

Molecular target: T2, GRIP1_2, Q9Y3R0
T2 sequence (Q9Y3R0 145-248, limits assumed, looked up): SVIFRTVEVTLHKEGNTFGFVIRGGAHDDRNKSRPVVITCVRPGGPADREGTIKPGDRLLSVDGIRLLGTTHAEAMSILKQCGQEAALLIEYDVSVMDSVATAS
Experiment: holdup assay
Design: key: below the threshold = too weak to quantify, mostly under pKd 3.1 to 4
Details: plain residues with an end cap or a label only (N-terminal biotin on a linker: ado-ado)

Binder | pKd
ADEMICITTL [CACNA1D, Q01668] | below the threshold

Molecular target: GRIP2_3, Q9C0E4
Experiment: holdup assay
Design: key: below the threshold = too weak to quantify, mostly under pKd 3.1 to 4
Details: plain residues with an end cap or a label only (N-terminal biotin on a linker: ado-ado)

Sequence of GRIP2_3, Q9C0E4 (Q9C0E4 238-339): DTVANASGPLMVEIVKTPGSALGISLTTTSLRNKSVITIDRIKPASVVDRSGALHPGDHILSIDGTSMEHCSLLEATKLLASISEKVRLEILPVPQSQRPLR

Binder | pKd
ADEMICITTL [CACNA1D, Q01668] | below the threshold

Molecular target: GRIP2_4, Q9C0E4
Experiment: holdup assay
Design: key: below the threshold = too weak to quantify, mostly under pKd 3.1 to 4
Details: plain residues with an end cap or a label only (N-terminal biotin on a linker: ado-ado)

Sequence of GRIP2_4, Q9C0E4 (Q9C0E4 446-548): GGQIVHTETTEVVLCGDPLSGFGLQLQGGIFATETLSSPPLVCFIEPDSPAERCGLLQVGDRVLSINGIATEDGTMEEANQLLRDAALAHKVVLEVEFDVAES

Binder | pKd
ADEMICITTL [CACNA1D, Q01668] | below the threshold

Molecular target: HTRA1, Q92743
Experiment: holdup assay
Design: key: below the threshold = too weak to quantify, mostly under pKd 3.1 to 4
Details: plain residues with an end cap or a label only (N-terminal biotin on a linker: ado-ado)

Sequence of HTRA1, Q92743 (Q92743 360-477): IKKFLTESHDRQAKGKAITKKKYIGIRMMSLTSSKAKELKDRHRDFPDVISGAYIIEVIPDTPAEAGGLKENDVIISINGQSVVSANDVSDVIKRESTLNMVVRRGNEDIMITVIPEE

Binder | pKd
ADEMICITTL [CACNA1D, Q01668] | 5.79

Molecular target: T3, HTRA4, P83105
T3 sequence (P83105 378-476, limits assumed, looked up): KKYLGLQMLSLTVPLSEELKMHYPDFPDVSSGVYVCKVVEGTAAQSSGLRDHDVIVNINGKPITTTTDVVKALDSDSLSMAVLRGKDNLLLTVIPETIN
Experiment: holdup assay
Design: key: below the threshold = too weak to quantify, mostly under pKd 3.1 to 4
Details: plain residues with an end cap or a label only (N-terminal biotin on a linker: ado-ado)

Binder | pKd
ADEMICITTL [CACNA1D, Q01668] | 4.36

Molecular target: Inadl_5, Q8NI35
Experiment: holdup assay
Design: key: below the threshold = too weak to quantify, mostly under pKd 3.1 to 4
Details: plain residues with an end cap or a label only (N-terminal biotin on a linker: ado-ado)

Sequence of Inadl_5, Q8NI35 (Q8NI35 673-780): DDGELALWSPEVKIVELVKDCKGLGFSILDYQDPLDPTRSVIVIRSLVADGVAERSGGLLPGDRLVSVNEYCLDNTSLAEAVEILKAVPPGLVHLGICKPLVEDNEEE

Binder | pKd
ADEMICITTL [CACNA1D, Q01668] | below the threshold

Molecular target: Inadl_6, Q8NI35
Experiment: holdup assay
Design: key: below the threshold = too weak to quantify, mostly under pKd 3.1 to 4
Details: plain residues with an end cap or a label only (N-terminal biotin on a linker: ado-ado)

Sequence of Inadl_6, Q8NI35 (Q8NI35 1058-1167): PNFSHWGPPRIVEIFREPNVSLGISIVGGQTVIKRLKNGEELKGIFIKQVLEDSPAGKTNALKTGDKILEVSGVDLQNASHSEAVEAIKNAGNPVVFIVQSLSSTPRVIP

Binder | pKd
ADEMICITTL [CACNA1D, Q01668] | 4.62

Molecular target: LDB3, O75112
Experiment: holdup assay
Design: key: below the threshold = too weak to quantify, mostly under pKd 3.1 to 4
Details: plain residues with an end cap or a label only (N-terminal biotin on a linker: ado-ado)

Sequence of LDB3, O75112 (O75112 1-94): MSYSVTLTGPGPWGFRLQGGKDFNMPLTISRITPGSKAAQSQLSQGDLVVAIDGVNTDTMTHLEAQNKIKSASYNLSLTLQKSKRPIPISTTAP

Binder | pKd
ADEMICITTL [CACNA1D, Q01668] | below the threshold

Molecular target: LNX1_3, Q8TBB1
Experiment: holdup assay
Design: key: below the threshold = too weak to quantify, mostly under pKd 3.1 to 4
Details: plain residues with an end cap or a label only (N-terminal biotin on a linker: ado-ado)

Sequence of LNX1_3, Q8TBB1 (Q8TBB1 500-596): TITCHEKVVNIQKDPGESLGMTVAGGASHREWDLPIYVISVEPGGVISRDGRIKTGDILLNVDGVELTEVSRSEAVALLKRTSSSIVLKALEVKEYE

Binder | pKd
ADEMICITTL [CACNA1D, Q01668] | below the threshold

Molecular target: MAGI2_3, Q86UL8
Experiment: holdup assay
Design: key: below the threshold = too weak to quantify, mostly under pKd 3.1 to 4
Details: plain residues with an end cap or a label only (N-terminal biotin on a linker: ado-ado)

Sequence of MAGI2_3, Q86UL8 (Q86UL8 600-682): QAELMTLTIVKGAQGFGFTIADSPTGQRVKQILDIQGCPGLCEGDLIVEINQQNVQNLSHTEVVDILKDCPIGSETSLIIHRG

Binder | pKd
ADEMICITTL [CACNA1D, Q01668] | 3.56

Molecular target: MAGI2_4, Q86UL8
Experiment: holdup assay
Design: key: below the threshold = too weak to quantify, mostly under pKd 3.1 to 4
Details: plain residues with an end cap or a label only (N-terminal biotin on a linker: ado-ado)

Sequence of MAGI2_4, Q86UL8 (Q86UL8 772-865): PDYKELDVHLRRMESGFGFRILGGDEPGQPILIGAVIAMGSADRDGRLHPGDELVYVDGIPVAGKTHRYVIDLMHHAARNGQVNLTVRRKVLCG

Binder | pKd
ADEMICITTL [CACNA1D, Q01668] | below the threshold

Molecular target: MAGI2_5, Q86UL8
Experiment: holdup assay
Design: key: below the threshold = too weak to quantify, mostly under pKd 3.1 to 4
Details: plain residues with an end cap or a label only (N-terminal biotin on a linker: ado-ado)

Sequence of MAGI2_5, Q86UL8 (Q86UL8 915-1017): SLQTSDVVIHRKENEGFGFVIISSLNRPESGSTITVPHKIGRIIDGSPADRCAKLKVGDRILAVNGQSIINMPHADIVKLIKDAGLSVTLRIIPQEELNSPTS

Binder | pKd
ADEMICITTL [CACNA1D, Q01668] | 4.76

Molecular target: MAST1, Q9Y2H9
Experiment: holdup assay
Design: key: below the threshold = too weak to quantify, mostly under pKd 3.1 to 4
Details: plain residues with an end cap or a label only (N-terminal biotin on a linker: ado-ado)

Sequence of MAST1, Q9Y2H9 (Q9Y2H9 962-1065): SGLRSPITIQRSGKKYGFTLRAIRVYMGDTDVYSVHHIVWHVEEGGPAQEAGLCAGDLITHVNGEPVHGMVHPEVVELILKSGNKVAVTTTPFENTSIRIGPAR

Binder | pKd
ADEMICITTL [CACNA1D, Q01668] | 5.06

Molecular target: T4, NHERF3_3, Q5T2W1
T4 sequence (Q5T2W1 238-333, limits assumed, looked up): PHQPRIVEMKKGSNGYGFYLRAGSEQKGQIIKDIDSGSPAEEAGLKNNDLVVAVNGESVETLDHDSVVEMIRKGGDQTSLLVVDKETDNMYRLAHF
Experiment: holdup assay
Design: key: below the threshold = too weak to quantify, mostly under pKd 3.1 to 4
Details: plain residues with an end cap or a label only (N-terminal biotin on a linker: ado-ado)

Binder | pKd
ADEMICITTL [CACNA1D, Q01668] | below the threshold

Molecular target: T5, NHERF3_4, Q5T2W1
T5 sequence (Q5T2W1 373-468, limits assumed, looked up): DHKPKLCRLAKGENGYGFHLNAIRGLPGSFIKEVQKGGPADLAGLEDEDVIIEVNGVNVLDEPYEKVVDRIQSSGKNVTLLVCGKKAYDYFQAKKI
Experiment: holdup assay
Design: key: below the threshold = too weak to quantify, mostly under pKd 3.1 to 4
Details: plain residues with an end cap or a label only (N-terminal biotin on a linker: ado-ado)

Binder | pKd
ADEMICITTL [CACNA1D, Q01668] | 4.19

Molecular target: NHERF4_2, Q86UT5
Experiment: holdup assay
Design: key: below the threshold = too weak to quantify, mostly under pKd 3.1 to 4
Details: plain residues with an end cap or a label only (N-terminal biotin on a linker: ado-ado)

Sequence of NHERF4_2, Q86UT5 (Q86UT5 220-308): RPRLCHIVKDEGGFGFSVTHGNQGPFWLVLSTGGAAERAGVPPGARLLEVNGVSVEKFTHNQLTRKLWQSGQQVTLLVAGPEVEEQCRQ

Binder | pKd
ADEMICITTL [CACNA1D, Q01668] | below the threshold

Molecular target: T6, PDZD2_2, O15018
T6 sequence (O15018 329-429, limits assumed, looked up): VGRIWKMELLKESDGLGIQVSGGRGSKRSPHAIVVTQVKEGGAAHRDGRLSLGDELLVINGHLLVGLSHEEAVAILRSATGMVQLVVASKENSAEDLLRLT
Experiment: holdup assay
Design: key: below the threshold = too weak to quantify, mostly under pKd 3.1 to 4
Details: plain residues with an end cap or a label only (N-terminal biotin on a linker: ado-ado)

Binder | pKd
ADEMICITTL [CACNA1D, Q01668] | 3.95

Molecular target: PICK1, Q9NRD5
Experiment: holdup assay
Design: key: below the threshold = too weak to quantify, mostly under pKd 3.1 to 4
Details: plain residues with an end cap or a label only (N-terminal biotin on a linker: ado-ado)

Sequence of PICK1, Q9NRD5 (Q9NRD5 17-115): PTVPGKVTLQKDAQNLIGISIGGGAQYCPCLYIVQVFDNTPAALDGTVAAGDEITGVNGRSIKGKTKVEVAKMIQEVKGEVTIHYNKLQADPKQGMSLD

Binder | pKd
ADEMICITTL [CACNA1D, Q01668] | 4.14

Molecular target: PTPN3, P26045
Experiment: holdup assay
Design: key: below the threshold = too weak to quantify, mostly under pKd 3.1 to 4
Details: plain residues with an end cap or a label only (N-terminal biotin on a linker: ado-ado)

Sequence of PTPN3, P26045 (P26045 505-587): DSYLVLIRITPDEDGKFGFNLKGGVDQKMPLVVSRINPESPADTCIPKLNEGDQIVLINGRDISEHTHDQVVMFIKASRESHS

Binder | pKd
ADEMICITTL [CACNA1D, Q01668] | 4.62

Molecular target: SCRIB_2, Q14160
Experiment: holdup assay
Design: key: below the threshold = too weak to quantify, mostly under pKd 3.1 to 4
Details: plain residues with an end cap or a label only (N-terminal biotin on a linker: ado-ado)

Sequence of SCRIB_2, Q14160 (Q14160 857-960): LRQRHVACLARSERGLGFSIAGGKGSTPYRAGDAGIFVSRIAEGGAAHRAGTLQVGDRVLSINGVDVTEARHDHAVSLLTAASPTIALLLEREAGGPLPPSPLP

Binder | pKd
ADEMICITTL [CACNA1D, Q01668] | 3.88

Molecular target: T7, SIPA1L2, Q9P2F8
T7 sequence (Q9P2F8 945-1036, limits assumed, looked up): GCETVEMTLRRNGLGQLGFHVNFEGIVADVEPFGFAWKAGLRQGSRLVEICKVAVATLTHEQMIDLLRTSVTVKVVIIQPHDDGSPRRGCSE
Experiment: holdup assay
Design: key: below the threshold = too weak to quantify, mostly under pKd 3.1 to 4
Details: plain residues with an end cap or a label only (N-terminal biotin on a linker: ado-ado)

Binder | pKd
ADEMICITTL [CACNA1D, Q01668] | below the threshold

Molecular target: T8, SNTA1, Q13424
T8 sequence (Q13424 82-180, limits assumed, looked up): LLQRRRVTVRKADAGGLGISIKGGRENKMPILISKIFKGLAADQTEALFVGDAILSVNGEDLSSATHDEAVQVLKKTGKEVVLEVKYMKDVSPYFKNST
Experiment: holdup assay
Design: key: below the threshold = too weak to quantify, mostly under pKd 3.1 to 4
Details: plain residues with an end cap or a label only (N-terminal biotin on a linker: ado-ado)

Binder | pKd
ADEMICITTL [CACNA1D, Q01668] | 4.42

Molecular target: T9, SNTG1, Q9NSN8
T9 sequence (Q9NSN8 52-150, limits assumed, looked up): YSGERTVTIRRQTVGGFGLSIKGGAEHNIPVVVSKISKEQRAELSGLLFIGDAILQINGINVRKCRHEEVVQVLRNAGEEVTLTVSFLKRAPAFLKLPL
Experiment: holdup assay
Design: key: below the threshold = too weak to quantify, mostly under pKd 3.1 to 4
Details: plain residues with an end cap or a label only (N-terminal biotin on a linker: ado-ado)

Binder | pKd
ADEMICITTL [CACNA1D, Q01668] | 4.32

Molecular target: T10, TJP3_3, O95049
T10 sequence (O95049 375-456, limits assumed, looked up): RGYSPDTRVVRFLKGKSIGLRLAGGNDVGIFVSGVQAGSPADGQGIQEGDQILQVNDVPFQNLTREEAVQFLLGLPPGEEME
Experiment: holdup assay
Design: key: below the threshold = too weak to quantify, mostly under pKd 3.1 to 4
Details: plain residues with an end cap or a label only (N-terminal biotin on a linker: ado-ado)

Binder | pKd
ADEMICITTL [CACNA1D, Q01668] | below the threshold
